Data from article PMC3785238 (Cell, 2013).

Legend:
Pin1-mGluR5 binding = assay: Co-immunoprecipitation of Pin1 and mGluR5 in HEK293T cells; assay type: cell-based; conditions: no other Homer
mGluR5-SIC = assay type: cell-based, mouse
mGluR5 = mGluR5 phosphorylation in cultured striatal neurons; assay type: cell-based; conditions: primary striatal cultures

B1: Homer1c: constitutively expressed cross-linking Homer protein (protein)
chain: MGEQPIFSTRAHVFQIDPNTKKNWVPTSKHAVTVSYFYDSTRNVYRIISLDGSKAIINSTITPNMTFTKTSQKFGQWADSRANTVYGLGFSSEHHLSKFAEKFQEFKEAARLAKEKSQEKMELTSTPSQESAGGDLQSPLTPESINGTDDERTPDVTQNSEPRAEPAQNALPFSHSAGDRTQGLSHASSAISKHWEAELATLKGNNAKLTAALLESTANVKQWKQQLAAYQEEAERLHKRVTELECVSSQANAVHSHKTELSQTVQELEETLKVKEEEIERLKQEIDNARELQEQRDSLTQKLQEVEIRNKDLEGQLSELEQRLEKSQSEQDAFRSNLKTLLEILDGKIFELTELRDNLAKLLECS
modifications: left off: tag not named ('Tagged transgenes'), end not stated, state not stated
effect of co-expression on Pin1-mGluR5 binding (Pin1-mGluR5 binding): reduced Pin1-mGluR5 binding

B2: BDNF: TrkB receptor ligand (protein, UniProt P21237 19-249, looked up)
Neurotrophic factor BDNF …: APMKEVNVHGQGNLAYPGVRTHGTLESVNGPRAGSRGLTTTSLADTFEHVIEELLDEDQKVRPNEENHKDADLYTSRVMLSSQVPLEPPLLFLLEEYKNYLDAANMSMRVRRHSDPARRGELSVCDSISEWVTAADKKTAVDMSGGTVTVLEKVPVSKGQLKQYFYETKCNPMGYTKEGCRGIDKRHWNSQCRTTQSYVRALTMDSKKRIGWRFIRIDTSCVCTLTIKRGR
mGluR5-SIC amplitude or duration, WT neurons (mGluR5-SIC; BDNF 10 ng/ml, 10 min, WT neurons, n = 14, 40-min monitoring): did not alter the amplitude or duration | mGluR5-SIC potentiation, WT neurons pretreated with KCl (mGluR5-SIC; BDNF 10 ng/ml, 10 min, after KCl pretreatment, n = 6, p < 0.05): ~ 1.5 fold | mGluR5-SIC potentiation, Grm5AA/AA neurons (mGluR5-SIC; BDNF 10 ng/ml, 10 min, Grm5AA/AA n = 8, or Homer1a-expressing n = 8): not potentiated | mGluR5-SIC potentiation, Homer1aW24A mutant or GFP expressing WT neurons (mGluR5-SIC; BDNF 10 ng/ml, 10 min, Homer1aW24A n = 6, GFP n = 5): absent | mGluR5-SIC potentiation, Homer1c expressing Homer1−/− neurons (mGluR5-SIC; BDNF 10 ng/ml, 10 min, Homer1c viral transgene, n = 8): blocked BDNF potentiation | mGluR5-SIC potentiation, Homer1-deficient neurons (mGluR5-SIC; BDNF 10 ng/ml, 10 min, Homer1−/−Homer2−/−Homer3−/− (n = 14) or Homer1−/− (n = 11) neurons, charge transfer versus baseline, p < 0.001): > 2 fold | mGluR5-SIC potentiation, Pin1−/− neurons (mGluR5-SIC; BDNF 10 ng/ml, 10 min, Pin1−/− (n = 6) or Homer1a-expressing Pin1−/− (n = 4)): not potentiated | mGluR5-SIC potentiation, Homer1a expressing WT neurons (mGluR5-SIC; BDNF 10 ng/ml, 10 min, n = 6, p < 0.001): potentiated | mGluR5-SIC potentiation, Grm5R/R neurons (mGluR5-SIC; BDNF 10 ng/ml, 10 min, n = 7, p < 0.001, no KCl pretreatment or Homer1a expression needed): potentiated | mGluR5-SIC potentiation, Homer1a−/− neurons pretreated with KCl (mGluR5-SIC; BDNF after KCl pretreatment, n = 3): not in Homer1a^−/− pre-treated with KCl | mGluR5 phosphorylation in striatal cultures (mGluR5): increases mGluR5 phosphorylation
